Bridge positions count the residues as written; N and C are the ends. Ends that are not written are not given here.
T1: IL-5RαECD, extracellular domain (ECD) of the human IL-5 receptor α chain, soluble (human) (UniProt Q01344)
T1 sequence (Q01344 whole entry, looked up): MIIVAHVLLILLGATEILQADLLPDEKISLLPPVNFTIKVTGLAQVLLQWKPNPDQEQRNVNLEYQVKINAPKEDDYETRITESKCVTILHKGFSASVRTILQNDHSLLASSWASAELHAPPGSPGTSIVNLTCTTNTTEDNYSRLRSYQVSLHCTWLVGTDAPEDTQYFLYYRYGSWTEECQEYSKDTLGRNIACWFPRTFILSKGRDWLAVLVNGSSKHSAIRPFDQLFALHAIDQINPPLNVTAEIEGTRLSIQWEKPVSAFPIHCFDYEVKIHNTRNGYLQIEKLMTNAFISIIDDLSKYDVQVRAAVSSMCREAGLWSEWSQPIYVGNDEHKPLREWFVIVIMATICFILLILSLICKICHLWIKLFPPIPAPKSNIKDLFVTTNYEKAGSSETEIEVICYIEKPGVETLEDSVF


What was measured:
[1] = biological target: T1, IL-5RαECD, extracellular domain (ECD) of the human IL-5 receptor α chain, soluble (human); test: competition with [125I] IL-5 for binding to immobilised IL-5Rα ECD; peptide after 10 days, disulfide-linked dimer
[2] = biological target: T1, IL-5RαECD, extracellular domain (ECD) of the human IL-5 receptor α chain, soluble (human); test: scintillation proximity competition assay, dimer against 20 pM [125I] IL-5 on IL-5Rα coated beads

IC50 [1] [nM]	SPA pIC50 [2]	Binder
0.55	–	TGGGDGYVCVEWARCPTCK (disulfide 15-18; also: homodimer linked by a Cys9-Cys9 interchain disulfide, disulfide at 9, other end not in the chain) [dimeric form of AF17362 (spontaneously formed disulfide-linked dimer)]
–	8.1	H-EGYVCVEWARCPTCR-NH2 (disulfide (positions not given here); also: dimer, intramolecular and intermolecular disulfide linkages, places not given here)
–	6.4	H-EGYVCVEFARCPTCR-NH2 (disulfide (positions not given here); also: dimer, intramolecular and intermolecular disulfides, places not given here)

— patent US7109299
